Test results as given in the supplement of paper PMC9170038.

Test system: MS2 coat protein
Assay: apparent KD of MS2 coat protein; higher = weaker reporter binding
Details: Eterna round: R107; input ligand: none
In short: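 Designed RNA switches, transcribed on-chip from Illumina sequencing clusters, were titrated with SNAP-549-labelled MS2 coat protein from 0.7 or 1.5 nM to 3 µM in twofold steps. The solution was 100 mM Tris-HCl pH 7.5, 80 mM KCl, 4 mM MgCl2, with constant ligand or without it. Apparent KD is the median over each design's normalised cluster binding-curve fits.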

Row | Sequence | apparent KD of MS2 coat protein
1 | GAGCUGAUGUAGAGCUUAUAUAAGAGAGAUACCAGUACAGAAAUGUACCCUUGGCAGCUCAACUUUACAUGAGGAUCACCCAUGU [Ex Theophylline A 20] | 12.6 nM
2 | GGUAUGUAUUCGGAAACGAAUGCAUACCAUCGAGGACCGGUACGGCCGCCACUCGUGGCUGAUCAACAUGAGGAUCACCCAUGUA [Ex Tryptophan A 1] | 85.9 nM
3 | GGAUAGGACACGGCCGCCACUACCUAGGAUACUAGCAACAUUUGGGUAUAUGAGGAUCACCCAUAUAGGACCGGGUGUCCUAUCG | 75.8 nM
4 | GUUGGAUUUUCGGCCGCCACUGAGAGAGUCAUGUGAACAUGAGGAUCACCCAUGUAAUAUAUAUACAGGACCGGGAGGGUUGUAA [4.L] | 14.6 nM
5 | GCUGUUGCGGUGAGGUAUCCGGCUGUGGAAGGAGCGCGGAAUGCCGCAGGUAGGUCGCCACAUGAGGAUCACCCAUGUCGAUAUA [Atzalama] | 27.2 nM
6 | AACAUGAGGAUCACCCAUGUUUGCUAUGAAGGAGCGUCGGAAAUGACAGGUAGGUCGCAUGGUAGACCGAGUAUUAUCUGUAUGG [EAA NP+V+V2 #11] | 9.74 nM
7 | UAUCCACAUGAGGAUCACCCAUGUUAGGAAGGAGCGGUGAGUGCACCAGGUAGGUCGCCUAGCUGAGGACUGUCGGUGGAUUCGU [Exclusion - Arginine A (Freestyle 20)] | 88 nM
8 | GCACCAGGUACGGAUACCAGCUAUAGGUACAGCGGAGGACAUGAGGAUCACCCAUGUGGUAGCCCUUGGCAGCUGUACCUGGUGC [EThB NP+V+V2 #1 +-Same Structure] | 14.9 nM
9 | GGCAGUCAUAGGAGGGCAAAUAUACUCGAAGGAGCGUCAUAGUAGGCAGGUAGGUCGCGAGACAUGAGGAUCACCCAUGUAGAGA [wwzmullin] | 66.9 nM
10 | CACGGAAGAGUGGAUCACCCUCUUAAUAAACGAGGACCGGUACGGCCGCCACUCGAAAACCGUGACCUGUACGAAAAGUGCAGGA | 39.4 nM
11 | GCACCAGGUACGGAUACCAGCUGCCACAGUUACAUGAGGAUCACCCAUGUGAAAACGUGUAGCCCUUGGCAGCUGUACCUGGUGC [SSThB NP+V+V2 #8 Same Structure] | 459 nM
12 | AGAGUCUAGUCGGCCGCCACUCAUGUCCUAAGGACAUGAGGAUCACCCAUGUACCAAAGGUACAUGAGGACCGGGACUGGACUCA [Omei Tryp B SS C v1] | 75.9 nM
13 | GGACCAUGGCGCGAUACCAGCUUGAGUGUACUGGCCAGGUACAUGAGGAUCACCCAUGUAAGCCCUUGGCAGCGCGCCAUGGUCC [#1 Exclusion - Theophylline B Attempt #24 (HarryS)] | 10.3 nM
14 | CGUGGUUGAGAUGGGCCUCUGAUAAGUCUGCGAGGACCGGUACGGCCGCCACUCGAGGACAUGAGGAUCACCCAUGUACUUCGCG [Vequar] | 30.8 nM
15 | GGGCCCGGGCGCGAGCCCGGGCCCAUUGAUACCAGUGAGAGAGAGCGCCCUUGGCAGCGAAUCCUAACAUGAGGAUCACCCAUGU [5.N] | 51.6 nM
16 | UCGGACAUGAGGAUCACCCAUGUAAAUCCUCGAGGACCGGUACGGCCGCCACUCGAACGAGUGGCGCGCGAGUGCGCACUCGCGC [aFa] | 33.2 nM
17 | GGGCGCUAUCCCGCGAGGGAUAGCGUUCGACGAGGACCGGUACGGCCGCCACUCGAACGAGUGGUGACAUGAGGAUCACCCAUGU [Naa] | 53 nM
18 | AAAUAAAUACAUGAGGAUCACCCAUGUGAAGGAGCGCCCGUUAGGGCAGGUAGGUCGCACAUGAAUAACUCCGUGCAAAAGCACA [ArgEX 18 #OpenEnded] | 29 nM

Same assay, conditions: Eterna round: R107; input ligand: theophylline 20 uM

Row | Sequence | apparent KD of MS2 coat protein
19 | UGCAUGAUCUGAAGGAGCGUGUAUGAUGAUAACAUGAGGAUCACCCAUGUCGAGACGGUAACACAGGUAGGUCGCAGAUCAUGCU [Arg B SS t4] | 31.7 nM
20 | CUACAUUUGUAGAAACCGGUCAACAAUAAUCGAGGACCGGUACGGCCGCCACUCGAUGUAAAAUAAACAUGAGGAUCACCCAUGU [Tryptophan A 12] | 20.6 nM
21 | GACAUGAGGAUCACCCAUGUACCGCGAGAAGGAGCGCGGAUAAACGCAGGUAGGUCGCUCGUGGGCUCACAUUCAAUUGUAAGCU [Digece] | 49.8 nM
22 | CUCCCGUGAGCGGCCGCCACUGGAGGCCUCGCGCGACAUGAGGAUCACCCAUGUUGGCCCGGCCUCAGGACCGGGUUCGCGUGAG [Same State - Tryptophan B Attempt #6 (HarryS)] | 17.4 nM
23 | GAGCUGAUGUAGAGCUUAUAUAAGAGAGAUACCAGUACAGAAAUGUACCCUUGGCAGCUCAACUUUACAUGAGGAUCACCCAUGU [Ex Theophylline A 20] | 16 nM
24 | ACACCGAAAGGUGCAUUUACCUUAUCAGAUACCAGACUUUACGUUGUCCCUUGGCAGCUGUAUCACAUGAGGAUCACCCAUGUUG [JR_SSTheophyA_Sub011] | 18.8 nM
25 | GGUAUGUAUUCGGAAACGAAUGCAUACCAUCGAGGACCGGUACGGCCGCCACUCGUGGCUGAUCAACAUGAGGAUCACCCAUGUA [Ex Tryptophan A 1] | 94.3 nM
26 | GGAUAGGACACGGCCGCCACUACCUAGGAUACUAGCAACAUUUGGGUAUAUGAGGAUCACCCAUAUAGGACCGGGUGUCCUAUCG | 88 nM
27 | GUUGGAUUUUCGGCCGCCACUGAGAGAGUCAUGUGAACAUGAGGAUCACCCAUGUAAUAUAUAUACAGGACCGGGAGGGUUGUAA [4.L] | 26.3 nM
28 | GCUGUUGCGGUGAGGUAUCCGGCUGUGGAAGGAGCGCGGAAUGCCGCAGGUAGGUCGCCACAUGAGGAUCACCCAUGUCGAUAUA [Atzalama] | 45.2 nM
29 | AACAUGAGGAUCACCCAUGUUUGCUAUGAAGGAGCGUCGGAAAUGACAGGUAGGUCGCAUGGUAGACCGAGUAUUAUCUGUAUGG [EAA NP+V+V2 #11] | 19.5 nM
30 | UAAACACAUGAGGAUCACCCAUGUCAUGAUACCAGUCAACAUGAGGACCCUUGGCAGCAUAAAAUGGGUAACAUGAGGAUCACCC [AstrosEXyTheA#2] | 78.4 nM
31 | UAUCCACAUGAGGAUCACCCAUGUUAGGAAGGAGCGGUGAGUGCACCAGGUAGGUCGCCUAGCUGAGGACUGUCGGUGGAUUCGU [Exclusion - Arginine A (Freestyle 20)] | 67.3 nM
32 | GAACAACAUGAGGAUCACCCAUGUCAGGAUACCAGUCGAAAGUCAGACCCUUGGCAGCCUAUCACUCAGCAAAUAGAUAGUACAA [theeternabot_sameState_MS2_Theo_A_12] | 20.4 nM
33 | ACGUAAAGCAGAAGGAGCGUCUUCAAUUUACAUGAGGAUCACCCAUGUUUUGUGAUCAUAUGACAGGUAGGUCGCUGAAGUACGA [JR_SSArginiB_Sub002] | 152 nM
34 | GCACCAGGUACGGAUACCAGCUAUAGGUACAGCGGAGGACAUGAGGAUCACCCAUGUGGUAGCCCUUGGCAGCUGUACCUGGUGC [EThB NP+V+V2 #1 +-Same Structure] | 23.9 nM
